From the supplement of paper PMC7125110
± gives the standard error. Fewer inactive variants are shown than the library holds.

B1: glmS ribozyme (parent)
chain: AUAAAAGCGCCAGAACUACAGAAAUGUAGUUGACGAGGAGGAGGUUUAUCGAAUUUUCGGCGGAUGCCUCCAAA

Variants of: B1
Experiment: self-cleavage kobs at 10000 uM GlcN6P; higher = faster cleavage; RNA array
Details: with glucosamine-6-phosphate
In short: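 Weighted Michaelis–Menten fits across concentrations supplied kcat and KM, based on kobs from one- or two-exponential decay fits to normalised per-tile medians. The data came from barcoded ribozyme variants transcribed in situ by E. coli RNA polymerase on sequenced MiSeq chips and tracked at 37 °C by a hybridised Cy3 probe. Glucosamine-6-phosphate (40 μM to 10 mM) in HEPES/KCl/Mg(OAc)2 buffer was flowed in.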

Row | Variant | self-cleavage kobs at 10000 uM GlcN6P [s⁻¹]
1 | C50A G62C | < 1e-05
2 | C16U G32A C58A U69A | 7.78e-05 ± 1.2e-05
3 | A33C A53G A64C | < 1e-05
4 | G32U C34A G37U | < 1e-05
5 | G41C G66C C68A | < 1e-05
6 | C16A U46C U55C | 7.09e-05 ± 1.6e-05
7 | A15G C67A C68A | 5.65e-05 ± 1.7e-05
8 | U31A A36C | < 1e-05
9 | A39U U65A | 0.00166 ± 0.00039
10 | A14G G44C C67U | 0.00278 ± 0.0013
11 | G29A G43U G51A | < 1e-05
12 | A14C G40A U47C | 0.000375 ± 7e-05
13 | C16U G26U U31C | 5.34e-05 ± 1.7e-05
14 | U45G A53G A64U | 8.08e-05 ± 1.8e-05
15 | U45C U65G C67A | 0.000786 ± 0.00016
16 | U31A A33C | 4.61e-05 ± 1.8e-05
17 | G13C G35U U47C A48C C61G C70U | < 1e-05
18 | G29U G41U U45C C70U | 0.000108 ± 2.4e-05
19 | A33G G37U U45C G62U | < 1e-05
20 | G41C U56A G59C | < 1e-05
21 | A33C A36C C50U C68A | < 1e-05
22 | G26U A53G U69G | 5.41e-05 ± 1.5e-05
23 | A53U C70G C71G | 2.8e-05 ± 1.2e-05
24 | G37U C58G G63U | < 1e-05
25 | A39C G51C G59C | < 1e-05
26 | A12U U30G A36U G41U A52U | < 1e-05

Row | Variant | self-cleavage kobs at 10000 uM GlcN6P [s⁻¹]
27 | G13A U57G C70U | 3.53e-05 ± 1.7e-05
28 | A48U U56A C68U | 7.52e-05 ± 1.8e-05
29 | A14U G35A A48G U54C C70G | < 1e-05
30 | A36C A39U U55A | < 1e-05
31 | U31C G40C U54C U56A A64U | < 1e-05
32 | C16U G38U A52C C58A | < 1e-05
33 | A14G G32A A52G | 0.000409 ± 0.00011
34 | G13C U49A G60U C61A | < 1e-05
35 | A33G C34U C50G C67U | 0.000194 ± 3.6e-05
36 | A36U U49A A53U | 3.89e-05 ± 9.3e-06
37 | A14C A23C | 0.0057 ± 0.0012
38 | C16U A39G G40U | 0.0008 ± 0.00026
39 | C34U C58U | < 1e-05
40 | G44U A64U C67G | 6.97e-05 ± 1.6e-05
41 | A48C G62U C67U C71G | < 1e-05
42 | A14C U45C A64G G66A | 0.000542 ± 9.2e-05
43 | G13C U31C A39C | 2.61e-05 ± 1.3e-05
44 | A64C U65G | 4.42e-05 ± 1.1e-05
45 | G32A C34U G51C | < 1e-05
46 | C19A C34G | < 1e-05
47 | A23C C68A | 5.82e-05 ± 2.4e-05
48 | C16U G29U G40U C50U | < 1e-05
49 | A33C G38U G41U G43A U56A | < 1e-05
50 | U30C U31G C70G | 0.000168 ± 4.5e-05
51 | A15G U65A G66U | 0.000274 ± 4.1e-05
52 | G13A C58U | 8.94e-05 ± 8.9e-06

Row | Variant | self-cleavage kobs at 10000 uM GlcN6P [s⁻¹]
53 | C16U U30G G59C | < 1e-05
54 | G13C A14G U69G | 3.8e-05 ± 1.6e-05
55 | G35C G37A C68G | 4.58e-05 ± 2e-05
56 | A12G C50U A52G U69G C71A | 3.23e-05 ± 1.6e-05
57 | G35C A39C G41U U49G | < 1e-05
58 | G35U G40C A53U U54A | < 1e-05
59 | U31C U47G C70G | 4.82e-05 ± 1.5e-05
60 | C16U G29U C67G | 0.000292 ± 8.5e-05
61 | U30G A48C | 5.11e-05 ± 1.6e-05
62 | G13U C58U | 6.77e-05 ± 6.2e-06
63 | G29A U31C U54G | 0.000213 ± 6.7e-05
64 | G35A G37C U47C | < 1e-05
65 | C34A U47G A52U C70A | 0.00102 ± 0.00046
66 | G40A U69C | 5.59e-05 ± 1.9e-05
67 | G41U G51U A53C | < 1e-05
68 | A15U C50U C58G | < 1e-05
69 | A15U U30G A48U A53G | 0.000112 ± 3.6e-05
70 | G38U A64U C71U | < 1e-05
71 | A14U U31C U46C | 0.00011 ± 1.7e-05
72 | A39U G41C U49A C61U | < 1e-05
73 | C34U G63C C68G | < 1e-05
74 | C16G G29A G32A | 0.00144 ± 0.00032
75 | A48U A52C G60A A64C | < 1e-05
76 | U30G U45A C67A | 0.00242 ± 0.00045
77 | A33C G51A A64U | < 1e-05
78 | C16G G38C G40C U45A A52G | < 1e-05

Row | Variant | self-cleavage kobs at 10000 uM GlcN6P [s⁻¹]
79 | U31G U55G U69G | 6.94e-05 ± 1.1e-05
80 | C16A U30C C61G | < 1e-05
81 | G26U U57G | 5.83e-05 ± 2e-05
82 | A15C A39G A52G | 0.000495 ± 8.8e-05
83 | G38A G44U A53G | < 1e-05
84 | G13C A33G G41U | < 1e-05
85 | G41A G66A C68U | 3.05e-05 ± 1.3e-05
86 | U30G G32A C71U | 0.00359 ± 0.0005
87 | U30A G44A C68G | < 1e-05
88 | U30C U46C G59U | < 1e-05
89 | A33G A39U U49C C68G | < 1e-05
90 | A36U G43U G63C | < 1e-05
91 | G13A G44U G62U C71G | < 1e-05
92 | A12G G51U C58G | < 1e-05
93 | G35A G43C C67G C68G | 6.9e-05 ± 2e-05
94 | U31G C67A C71A | 0.000258 ± 6.9e-05
95 | A12U C16G G29A C67G | 0.000109 ± 2.3e-05
96 | C34U G40U A42U | < 1e-05
97 | U55G C68A C71U | 2.99e-05 ± 1.4e-05
98 | G38C G43C G59C | < 1e-05
99 | C16U G40U G66U | 4.28e-05 ± 1.2e-05
100 | A15U G44U C61A | < 1e-05
101 | A14C G37A U45A U49A C50A C58U | < 1e-05
